Experimental data published in a protein production outcome set (Wang et al. 2014).

Assay: label from the status in PepcDB records
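Also: failed if final PepcDB status was selected cloned or expressed and not failed if soluble or beyond.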

## LLLEIGLEEMPARFLNESMVQLGDKLTGWLKEKNITHGEVKLFNTPRRLAVFVKDVAEKQDDIKEEAKGPAKKIALDADGNWTKAAIGFSKGQGANVEDLYIKEVKGIEYVFVQKFQAGQETKSLLPELSGLITSLHFPKNMRWGNEDLRYIRPIKWIVALFGQDVIPFSITNVESGRTTQGHRFLGHEVSIESPSAYEEQLKGQHVIADPSVRKQMIQSQLETMAAENNWSIPVDEDLLDEVNHLVEYPTALYGSFESEFLSIPEEVLVTTMKEHQRYFPVKDKNGDLLPHFITVRNGNSHAIENVARGNEKVLRARLSDASFFYKEDQKLNIDANVKKLENIVFHEELGSLADKVRRVTSIAEKLAVRLQADEDTLKHVKRAAEISKFDLVTHMIYEFPELQGIMGEKYARMLGEDEAVAAAVNEHYMPRSAGGETPSTFTGAVVAMADKLDTIASFFSIGVIPTGSQDPYGLPRQASGIVAILLDRNWGISFEELLTFVQTDKENELLDFFTQRLKYVLNAEQIRHDVIDAVLESSELE
  protein production: not failed

## LNHVAEELCAATNESEVFSIITRSASHIISAQRISYCVPNYKDKCFEIRSVFSENEVMKSATVDMENSALQFVLQSGSPQFFENLAVTNFTDHLILSKNGLCSGWSVPVRVKGEIVGLLNAASNVKINERAQQLGVIKMLSGIMGVTLSRVNLQEQLEHQ
  protein production: failed

## LNKEGEVERLLGINMDMTEVKQLNEALFQEKERLHITLDSIGEAVVCIDMAMKITFMNPVAEKMSGWTQEEALGVPLLTVLHITFGDNGPLMENIYSADTSRSAIEQDVVLHCRSGGSYDVHYSITPLSTLD
  protein production: failed

## LQTALARLGQWGILSRDLYGFFDQATELIRTALGVDYCGLWELLPNRSALVLCAGDGWDKALVGNYTIDATNRSYAGYTIQHNGDRRMEDYEPIVELDLRISTKFRASPLLHNLGIVSGINLMVAGPRTAFGVLGVYSLTARKFTEEEIEFLKVASHILAAAIDRQEYEERLLLLQQAIDASS
  protein production: failed

## LQTLCDILRADPADSRTLTELGREIGASDRTLSRLFRSELGMTFPQWRTQLRLHHALVLLADSTPVTAVAHLCGWSSASAFIDAFRRTFGHTPGARPRD
  protein production: failed

## LQTSRDLLSSVLSSSLDGIIVFSAIRSAGDTIADFECVLVNPQAEKLFESTAEDIVGMRLREDMPRQEEKGLFEAYREVVETGEPAEMEVHYDTDGQDVWFQVMAVKVENGVAVTYRDITDRKEAERQIREQAQLLDKA
  protein production: failed

## LRESEARFRMMADTSPIMLWVADQDKKMTFVNQSWLEFRGATLAEESGNGYLEGIHPDDKGHYLGVYSQAFGDRRRFELEYRYRRVDQQYRWIVNVGVPRYLEDGKFMGYVGSCLDITDRKQAQDILQKKLNQILLMRKISQEIRRSLQPTLIFQTAARQVGNVFAVSRCLIHNYSEATTLQVPVVAEYLGGQFTSLLAGEIAVEQAYDPTIIQGDRAMAVVDLDQDLNSTHTKAFYQRFQVKSFLAVRTSYQGKANGIIALHQCDRQRVWTADEIELLEAIAEQMGIALAQAALLEKERERRRELAQKNLELEKATWAAEAANRAKGEFLAMMSHEIRTPMNGVIGMT
  protein production: failed

## LRESEARLKGIAGNVPGLVFRLERDPAEGDLEFPYISEGSEALVGYAPSEIQHPQMGLRNLVHPEDRADYHRVQDLALASDQDWSWQGRILTRQGEQRWADIKASARHLGNGQVVWDGVVWDITQGKRAELALAKSQEQLRELSAHLESVREEEKARIAREVHDELGQM
  protein production: not failed

## LRESKRFIEQVISHSPQLLYIFEPTTGSNIYLNGQSVDILGYTPEEIKARGVKFFLDVLHPDDLYLLERNLNYWQNAADGEVLTTEWRMKHKNGSWRWLRSRDVVFARDENHFPCKVLGTTQDITDSKLAELE
  protein production: failed

## LTECLSQGEDIRLSKILIFAGTTEGRKLSEHLCKRGIEHTVCVATEYGEIVLHENPFAHVHMGRMDSEGMRSFFAEQKCKLIVDATHPYAAIVTENIKQAVYAFNEAHAVTDNQADSSISENIEYVRLKRDTDISADYDNIRYFEDNEACAKALNNTDGNILLTTGSKELSVYCKTSDVRERLYVRVLPGLESISLCMHNDITGKHILALQGPFSTQLNEALIDQYDIRCLVTKKSGAAGGFIEKIAAAKNKNIPVYIVGQSVQDDGMSFEAVCEYIDSKYNKLHIMLAGIGMGNDACMTKAVSDAIESADIILGASRMIEKYSAKIDKKPYYLAEQIIPYLYEICADTAKISNVLILFSGDTGFYSGSRKLYLAIKNEISEGKLNADVSILPGISSVSYMAAAVGETYNDAYICSIHGVKLSNITSRISHHAKTFMLMSGVRDVNMLGHLLSSDERYGLQKCSVTVGYQLSYPDENISQLSPQECTKLKREGLYICMIKNPNPVAKNVTPQLSDAAFIREKVPMTKEEIRHVSICKLHLKSDSVLYDVGSGTGSIAVEAASLSDDMEVYAIEQKENAVQLITKNKEKHGLENIHVINAKAPDGMENLPVPTHAFIGGSSGNLKEIIEALKAKNPHIRIVINAISMETICEIKEIMSAYNVKNEDIVQLQVSRSKQIGHYHLMQAENPVWICSFEF
  protein production: failed

## MAAAAAAAAAAGAAGGRGSGPGRRRHLVPGAGGEAGEGAPGGAGDYGNGLESEELEPEELLLEPEPEPEPEEEPPRPRAPPGAPGPGPGSGAPGSQEEEEEPGLVEGDPGDGAIEDPELEAIKARVREMEEEAEKLKELQNEVEKQMNMSPPPGNAGPVIMSIEEKMEADARSIYVGNVDYGATAEELEAHFHGCGSVNRVTILCDKFSGHPKGFAYIEFSDKESVRTSLALDESLFRGRQIKVIPKRTNRPGISTTDRGFPRARYRARTTNYNSSRSRFYSGFNSRPRGRVYRGRARATSWYSPY
  protein production: failed

## MAAAGAPDGMEEPSMDTEAEAVATEAPARPLNCVEAEAVVGTAAEDSCDARGNLQPAPAQPPGDPAAQASVSNGEDAGGGAGRELVDLKIIWNKTKHDVKVPLDSTGSELKQKIHSITGLPPAMQKVMYKGLVPEDKTLREIKVTSGAKIMVVGSTINDVLAVNTPKDAAQQDAKAEESKKEPLCRQKQHRKVLDKGKPEDVMPSVKGAQERLPTVPLSGMYNKSGGKVRLTFKLEQDQLWIGTKERTEKLPMGSIKNVVSEPIEGHEDYHMMAFQLGPTEASYYWVYWVPTQYVDAIKDTVLGKWQYF
  protein production: failed

## MAAAPASDVCGGGSKKNCSGRRMSDAAPPVSSPPPRQKGLLGVVERLGNLLPEPVMIFVWLILGLMVLSAIGQALGWSASITYAGDEAPQFGELENGVLTYAASSLFSEANLARLFTEMPKTLTSFAPLGLVLVVILGAAVAERSGLFSALIRASLREAPKRILTPLVVIIGMVSHHASDAAYVVFIPLAGLLYAAVGRHPLAGIAAGFAAVSGGFAGNLTPGQFDVVLFGFTQEAARIIDPTWTMNPLGNWWYILAIVVVFTPIAWFLTDKVVEPRLGPWGGQADDALKAELAKSAVTADEKRGLKFAGLAALAIVALFAALSLIPGFTPLIDETKTGPAQLTPFYGALIAGFMMLFLAGGVAYGVGVGTVKTEGDVVNMMADGVRSVAPYIVFAFFAAHFVAMFNWSRLGPIAAIHGAETLKAMNLPAPLLLVSVLGFSSVLDLFIGSASAKWSALAPVVVPMFMLLGISPEMTTAAYRMGDSFTNLMTPLMSYFPLVLAMTRRWDPSMGVGSLLALMLPYALAFMVAGVAMTLAWVAFDWPLGPAAQVHYTPPGGLLK
  protein production: failed

## MAAERKTKLSKNLLRMKFMQRGLDSETKKQLEEEEKKIISEEHWYLDLPELKEKESFIIEEQSFLLCEDLLYGRMSFRGFNPEVEKLMLQMNAKHKAEEVEDETVELDVSDEEMARRYETLVGTIGKKFARKRDHANYEEDENGDITPIKAKKMFLKPQD
  protein production: not failed

## MAAFTGTTDKCKACDKTVYVMDLMTLEGMPYHKSCFRCSHCNGTLVICNYSSMDGVLYCKTHFEQLFKESGNFSKNFQTAGKTEKSNDAAPNRLSSFFSGTQDKCAACKKTVYPLEKMTMEGESYHKTCFRCAHSGCPLTHSSYAALDGVLYCKVHFSQLFLEKGNYNHVLQAAANHRRSTAEEDKTEPKEDEANPTEEETSDAAAEEHES
  protein production: failed

## MAAGFSSKTTRDSPHLSEIRVVLLGNNDCDRRRVVRSVLGDLTGESVGQCTVYDGEESRRRIRVVDAPGWNSNTPQSKLRESIERSAMLCAPGPHALLLVLPVRRNEDMSAGDIKSGMKLVEMLSERAWRHTIVVFACDEGTGGFSCSQKAKIVLEKCKGRGFYLQRQGGIAQLFTQIEDLVRDNGEDDVFLPQAYHELFRRKTEGLLHRRGNLRKKPVHLSKSEAGALGVEPFSVIVIAVLAAVLVSLSFGAEYGVFGGCAGLLLGSILPF
  protein production: failed
